Assay results taken from patent US5985599.

Legend:
[1] = biological target: dimeric human IgG1 (myeloma protein, chemically cross-linked) (human) [IgG part: P01857]; test: direct binding of 125I-dimeric human IgG1 to transfected COS-7 cells
[2] = biological target: dimeric human IgG1 (myeloma protein, chemically cross-linked) (human) [IgG part: P01857]; test: direct binding of 125I-dimeric hIgG1 to transfected COS-7 cells, corrected for expression
[3] = biological target: mouse beta1 Fc(gamma)R encoded by pFc113 (mouse); test: sheep anti-mouse Ig rosetting on the cells of Table 5

## human FcγRII (wild-type FcγRIIa) encoded by HFc3.0 (receptor)
[1]
  Ka: 1e+06 M⁻¹

## FcγRII Pro134-Ala (receptor)
[2]
  percent binding compared to wild-type FcγRII (percent of wild-type): 134

## FcγRII Leu159-Ala (receptor)
[1]
  Ka: 1e+07 M⁻¹
  fold increase of binding over wild-type FcγRII: 10 fold

## FcγRII Leu115-Ala (receptor)
[2]
  percent binding compared to wild-type FcγRII (percent of wild-type): 20.6

## FcγRII Lys113-Ala (receptor)
[2]
  percent binding compared to wild-type FcγRII (percent of wild-type): 15.9

## FcγRII Arg/His131-Ala (receptor)
[2]
  percent binding compared to wild-type FcγRII (percent of wild-type): 21.9
  percent decrease of hIgG1-dimer binding: 80%

## irrelevant antibody (background control of Table 5)
[3]
  % rosette formation (background): < 5%

## FcγRII Phe129-Ala (receptor)
[2]
  percent binding compared to wild-type FcγRII (percent of wild-type): 8.2
  percent decrease of hIgG1-dimer binding: > 90%

## FcγRII Pro114-Ala (receptor)
[2]
  percent binding compared to wild-type FcγRII (percent of wild-type): 53.5

## FcγRII Val116-Ala (receptor)
[2]
  percent binding compared to wild-type FcγRII (percent of wild-type): 73.5

## FcγRII Phe160-Ala (receptor)
[1]
  Ka: 1e+07 M⁻¹
  fold increase of binding over wild-type FcγRII: 10 fold

## FcγRII Asp133-Ala (receptor)
[2]
  percent binding compared to wild-type FcγRII (percent of wild-type): 114
